Results on one protein are retold here after publication doi:10.1101/2022.10.28.514248 (bioRxiv, 2022).

This data set deals with the molecule itself. The data set can be described thus: crystal structure.

B1: GDAP1ΔTM T157P (Ganglioside-induced differentiation-associated protein 1, amino acids 1-322, T157P) (domain or fragment, mouse)
chain: GGSMARRQDEARAGVPLRVEGPPDKEVHLILYHWTHSFSSQKVRLVIAEKALKCEEHDVSLPLSEHNEPWFMRLNSAGEVPVLVHGENIICEATQIIDYLEQTFLDERTPRLMPDEGSMYYPRVQHYRELLDSLPMDAYTHGCILHPELTVDSMIPAYAPTRIRSQIGNTESELKKLAEENPDLQEAYIAKQKRLKSKLLDHDNVKYLKKILDELEKVLDQVETELQRRNEETPEEGNQPWLCGESFTLADVSLAVTLHRLKFLGFARRNWGHGKRPNLETYYERVLKRKTFNKVLGHVNNILISAVLPTAFRVAKKRAPKVLGS
As for B1, the binding result is “binds”.
